Assay results published in the supplement of paper PMC10567573.

B1: USP39 (parent)
chain: TLSEAYIQIWKRRDNDETNQQGA
B2: HDAC6 (parent)
chain: DLMETTQYMNEGELRVLADTYDSV

Variants of: B1
Assay: protein stability index of a GFP-peptide fusion (GPS, HEK-293T) (PSI 1-6); higher = more stable
Conditions: c terminus: native
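Also: lentivirally expressed fusions sorted by FACS into six bins by GFP to DsRed ratio, PSI derived from sequencing read proportions per bin multiplied by bin number.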

Protein stability index, by site and new letter:
D14: S 1.94, T 2.39, V 2.9, W 1.94, Y 1.9
N15: A 2.38, C 2.31, D 3.03, E 3.18, F 2.24, G 2.68, H 3.1, I 2.53, K 2.51, L 1.92, M 1.86, P 1.77, Q 2.01, R 2.24, S 1.88, T 1.88, V 2.12, W 2.36, Y 1.28
D16: A 2.1, C 2.54, E 2.14, F 1.51, G 1.65, H 1.63, I 1.95, K 2.32, L 2.61, M 2.93, N 2.67, P 1.29, Q 2.22, R 1.66, S 2.22, T 1.98, W 3.13, Y 2.9
E17: A 1.8, C 2.33, D 2.79, F 1.99, G 2.66, H 1.6, I 1.93, K 1.72, L 1.71, N 1.77, P 2.4, Q 1.55, R 1.63, T 1.9, V 1.5, W 2.35, Y 1.87
T18: A 3.05, C 1.69, D 1.95, E 2.56, F 1.73, G 2.57, H 3.19, I 3.17, K 3.63, L 2.06, M 1.43, N 2.41, P 1.87, Q 1.61, R 2.54, S 1.89, V 2.56, W 2.11, Y 2.51
N19: A 2.38, C 2.1, D 4.38, E 3.9, F 2.99, G 3.69, H 2.75, K 2.77, L 1.79, M 2.06, P 1.45, Q 2.85, R 2.37, S 2.9, T 3.51, V 2.32, W 2.61, Y 3.5
Q20: A 2.51, C 2.38, D 2.37, E 2.15, F 2.02, G 2.68, H 1.58, I 1.74, K 2.14, L 2.02, M 3.46, N 3.41, P 1, R 2.35, S 4.26, T 3.77, V 1.73, W 2.17, Y 2.4
Q21: A 2.96, C 1.76, D 2.74, E 2.87, F 1.79, G 2.52, H 2.05, I 2.66, K 3.59, L 2.09, M 1.8, N 3.81, P 4.25, R 1.53, S 2.96, T 3.59, V 1.96, W 1.84, Y 2.43
G22: A 3.77, C 2.83, D 3.84, E 4.79, F 3, H 3.63, I 3.35, K 4.09, L 3.26, M 3.1, N 4.12, P 3.05, Q 4.13, R 2.83, S 3.82, T 3.66, V 3.41, W 2.45, Y 3.04
A23: C 3.53, D 4.15, E 4.22, F 3.71, H 4.18, I 3.76, K 4.54, L 3.89, M 4.35, N 4.51, P 4.07, Q 4.5, R 2.59, S 3.94, T 3.73, V 4.23, W 2.94, Y 3.58

Variants of: B2
Assay: as above
Conditions: c terminus: a fixed tail appended

Protein stability index, by site and new letter:
D1: A 1.77, C 2.48, E 2.22, F 2.46, G 3.06, H 1.53, I 3.02, K 2.28, L 2.05, M 1.54, N 2.18, P 4.29, Q 2.25, R 3.01, T 2.27, V 1.25, W 1.55, Y 2.04
L2: A 2.33, C 3.12, D 5.2, E 4.57, F 3.49, G 3.22, H 5.04, I 1.55, K 4.96, M 3.77, N 4.32, P 4.8, Q 4.68, R 4.52, T 4.52, V 1.62, W 3.31, Y 3.88
M3: A 3.05, C 1.69, D 4.6, E 3.74, F 2.22, G 3.84, H 3.91, I 2.13, K 4.13, L 1.91, N 4.55, P 4.65, Q 3.29, R 3.77, S 3.48, T 3.15, V 2.2, W 2, Y 2.74
E4: A 2.03, C 1.74, D 2.52, F 1.48, G 1.7, H 2.18, I 1.11, K 2.09, M 1.31, N 1.98, P 2.23, Q 3.94, R 3.36, S 1.78, T 3, V 1.83, W 1.5, Y 1.51
T5: C 2.38, D 4.43, E 2.54, F 2.03, G 3.72, H 1.89, I 2.67, K 2.9, L 1.39, M 1.71, N 2.32, P 1.72, Q 1.99, R 2.56, S 1.96, V 1.5, W 1.61, Y 1.38
T6: A 1.75, C 2.5, E 2.88, F 1.44, G 3.57, H 2.29, K 1.02, M 1.63, N 2.42, P 2.3, Q 1.94, R 2.24, S 1.56, V 1.46, W 1.73, Y 1.66
Q7: A 1.53, D 2.35, E 1.97, G 2.05, H 1.14, K 2.12, L 2.12, N 2.12, P 3.69, R 1.14, S 2.02, T 2.37, V 1.67, Y 2.52
Y8: A 3.88, C 4.07, D 4.62, E 4.21, F 1.65, G 4.5, H 4.78, I 4.19, K 4.56, L 4.27, M 4.29, N 4.67, P 5.51, Q 4.22, R 3.66, S 5.09, T 4.36, W 1.89
M9: A 4.57, C 4.25, D 4.95, E 4.61, F 3.44, G 4.71, H 4.55, I 4.14, K 4.24, L 3.84, N 4.12, P 4.55, Q 4.92, R 4.28, S 4.68, T 4.82, V 3.6, W 3.37, Y 4.31
N10: A 1.98, C 1.88, D 3.95, E 2.91, F 1.05
